Test results: article PMC12278352, “Characterization of DnaB–DnaG Interaction in M. tuberculosis Using Small‐Angle X‐ray Scattering‐Based Dissociation Assay” (Chembiochem, 2025)

Experiments:
[1] = molecular target: the molecule itself; assay: SPR; full-length DnaG (7.2 μg) immobilised on a GLC chip by amine coupling; soluble DnaG 0-17 μM, 60 μL/min; signal at equilibrium; profile did not follow a pure 1:1 fit; monomer to dimer
[2] = molecular target: the molecule itself; assay: SAXS; T7 primase at constant concentration (1 mg/ml in the methods, 50 μM in the legend) with increasing 4-mer RNA (5'-ACCC-3'), RNA:protein molar ratio 1 to 10, in the presence of ATP/CTP, RNA and Mg2+; 20 mM Tris-HCl pH 7.5, 1 mM DTT; 4 °C; Rg against theoretical monomer (24 Å) and dimer (27 Å)
[3] = molecular target: the molecule itself; assay: cross-linking; Fe(II)-catalysed cross-linking of T7 primase (15 μM) with 1 mM ATP, ferrous chloride, H2O2, ascorbic acid, room temperature 45 min; products analysed by Superdex 200 SEC, SDS-PAGE and MALDI-TOF

B1: M. tuberculosis DnaG primase, full-length (enzyme)
chain: MSGRISDRDIAAIREGARIEDVVGDYVQLRRAGADSLKGLCPFHNEKSPSFHVRPNHGHFHCFGCGEGGDVYAFIQKIEHVSFVEAVELLADRIGHTISYTGAATSVQRDRGSRSRLLAANAAAAAFYAQALQSDEAAPARQYLTERSFDAAAARKFGCGFAPSGWDSLTKHLQRKGFEFEELEAAGLSRQGRHGPMDRFHRRLLWPIRTSAGEVVGFGARRLFDDDAMEAKYVNTPETLLYKKSSVMFGIDLAKRDIAKGHQAVVVEGYTDVMAMHLAGVTTAVASCGTAFGGEHLAMLRRLMMDDSFFRGELIYVFDGDEAGRAAALKAFDGEQKLAGQSFVAVAPDGMDPCDLRLKCGDAALRDLVARRTPLFEFAIRAAIAEMDLDSAEGRVAALRRCVPMVGQIKDPTLRDEYARQLAGWVGWADVAQVIGRVRGEAKRTKHPRLGRLGSTTIARAAQRPTAGPPTELAVRPDPRDPTLWPQREALKSALQYPALAGPVFDALTVEGFTHPEYAAVRAAIDTAGGTSAGLSGAQWLDMVRQQTTSTVTSALISELGVEAIQVDDDKLPRYIAGVLARLQEVWLGRQIAEVKSKLQRMSPIEQGDEYHALFGDLVAMEAYRRSLLEQASGDDLTA
notes: DnaG primase, Mycobacterium tuberculosis, full length (the truncated form ends at amino acid 639); also called full DnaG; full-length DnaG
[1]
  Kd: 2 ± 0.3 µM

B2: primase domain of gene 4 protein (gp4) from bacteriophage T7 (residues 1–271) (domain or fragment, UniProt P03692 1-271, looked up)
chain: MDNSHDSDSVFLYHIPCDNCGSSDGNSLFSDGHTFCYVCEKWTAGNEDTKERASKRKPSGGKPMTYNVWNFGESNGRYSALTARGISKETCQKAGYWIAKVDGVMYQVADYRDQNGNIVSQKVRDKDKNFKTTGSHKSDALFGKHLWNGGKKIVVTEGEIDMLTVMELQDCKYPVVSLGHGASAAKKTCAANYEYFDQFEQIILMFDMDEAGRKAVEEAAQVLPAGKVRVAVLPCKDANECHLNGHDREIMEQVWNAGPWIPDGVVSALSL
notes: primase domain of gene 4 protein (gp4), bacteriophage T7, residues 1-271; For the NMR spectra the protein was 15N-labelled and deuterated; Monomer without cofactors, dimer with ATP/CTP, RNA and Mg2+; also called T7 primase; T7 DNA primase
[2]
  stoichiometry N: 2
[3]
  stoichiometry N: 3
